Results as given in patent US20190092827A1 (University of Texas, published 2019).

Biological target: the molecule itself
Assay: solution NMR spectroscopy, monomer-dimer equilibrium (homodimerisation)

B1: WT MIP-2 (chemokine CXCL2, also known as MIP-2 in mice) (ligand, mouse, UniProt P10889 28-100, looked up)
chain: AVVASELRCQCLKTLPRVDFKNIQSLSVTPPGPHCAQTEVIATLKGGQKVCLDPEAPLVQKIIQKILNKGKAN
notes: also called native MIP-2; wild-type (WT) chemokine
Protein B1 has a Kd of 10 µM.
